Laboratory results published in paper PMC7583038.

Legend:
[1] = biological target: eelFSHR-D540G (eel)
[2] = biological target: eelFSHR-D540N (eel)
[3] = biological target: wild-type eel follicle-stimulating hormone receptor (eel)
[4] = biological target: eelFSHR-R546C (eel)
[5] = biological target: wild-type eel follicle-stimulating hormone receptor (eel); remark: listed apart in the source

EC50 of the rec-eelFSH-stimulated cAMP response (HTRF) in transfected CHO-K1 cells, 30 min [1]: 0.359 µg/mL
EC50 of the rec-eelFSH-stimulated cAMP response (HTRF) in transfected CHO-K1 cells, 30 min [2]: 0.544 µg/mL
EC50 of the rec-eelFSH-stimulated cAMP response (HTRF) in transfected CHO-K1 cells, 30 min [3]: 0.524 µg/mL
EC50 of the rec-eelFSH-stimulated cAMP response (HTRF) in transfected CHO-K1 cells, 30 min [4]: 0.385 µg/mL
EC50 of the rec-eelFSH-stimulated cAMP response (HTRF) in transfected CHO-K1 cells, 30 min (series with the inactivating mutants) [5]: 0.314 µg/mL
Substance: recombinant eel follicle-stimulating hormone (ligand)
